Reference: patent US12319747B2, “Methods of using anti-SP17 immunotherapeutics” (Medicovestor, Inc., priority 2023, dated 2025)
“Also recorded” adds a separate entry of the source.

Tested on: 33 normal human tissues
Assay: Immunohistochemistry on a normal tissue microarray (specificity)
Conditions: 33 normal tissues, 2-3 human donors per tissue
Protocol: The specificity of the chAB2 antibody for Sp17 was determined with immunohistochemistry on a normal tissue microarray, which consisted of 33 normal tissues obtained from 2-3 human donors per tissue. The normal tissues included brain, eye, adrenal gland, hypophyseal, thyroid, parathyroid, tonsil, thymus, spleen, heart, lung, larynx, esophagus, stomach, small intestine, colon, liver, pancreas, salivary gland, kidney, bone, skeletal, skin, peripheral nerve, mesothelial, breast, ovary, endometrium, cervix, testis, and prostate.

B1: chAB2: mouse-human chimeric anti-Sp17 monoclonal antibody; human VH/VL (SEQ ID NO: 3, 4) in mouse IgG2a heavy chain and mouse kappa light chain (antibody, V domains shown)
VH: QVQLQQSGAEVKKPGSSVKVSCKASGGTFSSYAISWVRQAPGQGLEWMGRIIPILGIANYAQKFQGRVTITADKSTSTAYMELSSLRSEDTAVYYCARPSEEVVAAYGAFDIWGQGTTVTVSS
VL: EIVLTQSPLSLPVRPGEPASISCRASQSLLRSDGFNYLDWYLQKPGQSPQLLVYLGSNRASGVPDRFSGSGSGTDFTLKISRVEAEDVGVYYCMQAVQTPYIFGQGTKLEIK
modifications: mouse IgG2a and kappa constant regions
binding to normal human tissues / cross-reactivity: bound to testis and did not bind to normal tissues; also recorded: lack detectable cross-reactivity
